Data as given in patent US12630600B2 (MEDIMMUNE LIMITED, priority 2022, dated 2026).
Starred links: 1 amine or outer side, 2 acyl side, 3 side chain; linkers in the order of their positions; H or OH if unused. Non-standard residues stand in square brackets, D forms with d. Groups on a side chain read outwards from the residue. Primed or numbered codes have the meaning given here. No end group written: not given here. *: point of attachment. C20 diacid = O=C(O)CCCCCCCCCCCCCCCCCCC(=O)*; C18 diacid = O=C(O)CCCCCCCCCCCCCCCCC(=O)*; γGlu = O=C(O)[C@H](CCC(=O)[*:2])N[*:1]; Stearoyl = CCCCCCCCCCCCCCCCCC(=O)*; Palmitoyl = CCCCCCCCCCCCCCCC(=O)*; αMeF = C[C@](N)(Cc1ccccc1)C(=O)O; Myristoyl = CCCCCCCCCCCCCC(=O)*; (PEG)2 = polyethylene glycol 2; PEG2′ = polyethylene glycol 2; αMeS = C[C@](N)(CO)C(=O)O; AEEA = NCCOCCOCC(=O)O; Aib = CC(C)(N)C(=O)O

B1: Peptide 18 (peptide)
peptide: H[Aib]HGS[αMeF]TSDVSK[αMeF]LDSK([AEEA-AEEA-γGlu-C18 diacid])AARD[αMeF]VQSIANT-NH2
modifications: N-terminus assumed
SMILES: CC[C@H](C)[C@H](NC(=O)[C@H](CO)NC(=O)[C@H](CCC(N)=O)NC(=O)[C@@H](NC(=O)[C@](C)(Cc1ccccc1)NC(=O)[C@H](CC(=O)O)NC(=O)[C@H](CCCNC(=N)N)NC(=O)[C@H](C)NC(=O)[C@H](C)NC(=O)[C@H](CCCCNC(=O)COCCOCCNC(=O)COCCOCCNC(=O)CC[C@H](NC(=O)CCCCCCCCCCCCCCCCC(=O)O)C(=O)O)NC(=O)[C@H](CO)NC(=O)[C@H](CC(=O)O)NC(=O)[C@H](CC(C)C)NC(=O)[C@](C)(Cc1ccccc1)NC(=O)[C@H](CCCCN)NC(=O)[C@H](CO)NC(=O)[C@@H](NC(=O)[C@H](CC(=O)O)NC(=O)[C@H](CO)NC(=O)[C@@H](NC(=O)[C@](C)(Cc1ccccc1)NC(=O)[C@H](CO)NC(=O)CNC(=O)[C@H](Cc1c[nH]cn1)NC(=O)C(C)(C)NC(=O)[C@@H](N)Cc1c[nH]cn1)[C@@H](C)O)C(C)C)C(C)C)C(=O)N[C@@H](C)C(=O)N[C@@H](CC(N)=O)C(=O)N[C@H](C(N)=O)[C@@H](C)O
B2: Peptide 15 (peptide)
peptide: H[Aib]HGS[αMeF]TSDVSK[αMeF]LDSK([AEEA-AEEA-γGlu-C18 diacid])AARD[αMeF]VE[Aib]IANT-NH2
modifications: N-terminus assumed
SMILES: CC[C@H](C)[C@H](NC(=O)C(C)(C)NC(=O)[C@H](CCC(=O)O)NC(=O)[C@@H](NC(=O)[C@](C)(Cc1ccccc1)NC(=O)[C@H](CC(=O)O)NC(=O)[C@H](CCCNC(=N)N)NC(=O)[C@H](C)NC(=O)[C@H](C)NC(=O)[C@H](CCCCNC(=O)COCCOCCNC(=O)COCCOCCNC(=O)CC[C@H](NC(=O)CCCCCCCCCCCCCCCCC(=O)O)C(=O)O)NC(=O)[C@H](CO)NC(=O)[C@H](CC(=O)O)NC(=O)[C@H](CC(C)C)NC(=O)[C@](C)(Cc1ccccc1)NC(=O)[C@H](CCCCN)NC(=O)[C@H](CO)NC(=O)[C@@H](NC(=O)[C@H](CC(=O)O)NC(=O)[C@H](CO)NC(=O)[C@@H](NC(=O)[C@](C)(Cc1ccccc1)NC(=O)[C@H](CO)NC(=O)CNC(=O)[C@H](Cc1c[nH]cn1)NC(=O)C(C)(C)NC(=O)[C@@H](N)Cc1c[nH]cn1)[C@@H](C)O)C(C)C)C(C)C)C(=O)N[C@@H](C)C(=O)N[C@@H](CC(N)=O)C(=O)N[C@H](C(N)=O)[C@@H](C)O
B3: Peptide 17 (peptide)
peptide: H[Aib]HGS[αMeF]TSDVSK[αMeF]LDSK([AEEA-AEEA-γGlu-C18 diacid])AARD[αMeF]VESIANT-NH2
modifications: N-terminus assumed
SMILES: CC[C@H](C)[C@H](NC(=O)[C@H](CO)NC(=O)[C@H](CCC(=O)O)NC(=O)[C@@H](NC(=O)[C@](C)(Cc1ccccc1)NC(=O)[C@H](CC(=O)O)NC(=O)[C@H](CCCNC(=N)N)NC(=O)[C@H](C)NC(=O)[C@H](C)NC(=O)[C@H](CCCCNC(=O)COCCOCCNC(=O)COCCOCCNC(=O)CC[C@H](NC(=O)CCCCCCCCCCCCCCCCC(=O)O)C(=O)O)NC(=O)[C@H](CO)NC(=O)[C@H](CC(=O)O)NC(=O)[C@H](CC(C)C)NC(=O)[C@](C)(Cc1ccccc1)NC(=O)[C@H](CCCCN)NC(=O)[C@H](CO)NC(=O)[C@@H](NC(=O)[C@H](CC(=O)O)NC(=O)[C@H](CO)NC(=O)[C@@H](NC(=O)[C@](C)(Cc1ccccc1)NC(=O)[C@H](CO)NC(=O)CNC(=O)[C@H](Cc1c[nH]cn1)NC(=O)C(C)(C)NC(=O)[C@@H](N)Cc1c[nH]cn1)[C@@H](C)O)C(C)C)C(C)C)C(=O)N[C@@H](C)C(=O)N[C@@H](CC(N)=O)C(=O)N[C@H](C(N)=O)[C@@H](C)O
B4: Peptide 16 (peptide)
peptide: H[Aib]HGS[αMeF]TSDVSK[αMeF]LDSK([AEEA-AEEA-γGlu-C18 diacid])AARD[αMeF]IA[Aib]IANT-NH2
modifications: N-terminus assumed
SMILES: CC[C@H](C)[C@H](NC(=O)C(C)(C)NC(=O)[C@H](C)NC(=O)[C@@H](NC(=O)[C@](C)(Cc1ccccc1)NC(=O)[C@H](CC(=O)O)NC(=O)[C@H](CCCNC(=N)N)NC(=O)[C@H](C)NC(=O)[C@H](C)NC(=O)[C@H](CCCCNC(=O)COCCOCCNC(=O)COCCOCCNC(=O)CC[C@H](NC(=O)CCCCCCCCCCCCCCCCC(=O)O)C(=O)O)NC(=O)[C@H](CO)NC(=O)[C@H](CC(=O)O)NC(=O)[C@H](CC(C)C)NC(=O)[C@](C)(Cc1ccccc1)NC(=O)[C@H](CCCCN)NC(=O)[C@H](CO)NC(=O)[C@@H](NC(=O)[C@H](CC(=O)O)NC(=O)[C@H](CO)NC(=O)[C@@H](NC(=O)[C@](C)(Cc1ccccc1)NC(=O)[C@H](CO)NC(=O)CNC(=O)[C@H](Cc1c[nH]cn1)NC(=O)C(C)(C)NC(=O)[C@@H](N)Cc1c[nH]cn1)[C@@H](C)O)C(C)C)[C@@H](C)CC)C(=O)N[C@@H](C)C(=O)N[C@@H](CC(N)=O)C(=O)N[C@H](C(N)=O)[C@@H](C)O
B5: Peptide 14 (peptide)
peptide: H[Aib]HGS[αMeF]TSDVSK[αMeF]LDSK([AEEA-AEEA-γGlu-γGlu-C20 diacid])AARD[αMeF]VQ[Aib]IANT-NH2
modifications: N-terminus assumed
SMILES: CC[C@H](C)[C@H](NC(=O)C(C)(C)NC(=O)[C@H](CCC(N)=O)NC(=O)[C@@H](NC(=O)[C@](C)(Cc1ccccc1)NC(=O)[C@H](CC(=O)O)NC(=O)[C@H](CCCNC(=N)N)NC(=O)[C@H](C)NC(=O)[C@H](C)NC(=O)[C@H](CCCCNC(=O)COCCOCCNC(=O)COCCOCCNC(=O)CC[C@H](NC(=O)CC[C@H](NC(=O)CCCCCCCCCCCCCCCCCCC(=O)O)C(=O)O)C(=O)O)NC(=O)[C@H](CO)NC(=O)[C@H](CC(=O)O)NC(=O)[C@H](CC(C)C)NC(=O)[C@](C)(Cc1ccccc1)NC(=O)[C@H](CCCCN)NC(=O)[C@H](CO)NC(=O)[C@@H](NC(=O)[C@H](CC(=O)O)NC(=O)[C@H](CO)NC(=O)[C@@H](NC(=O)[C@](C)(Cc1ccccc1)NC(=O)[C@H](CO)NC(=O)CNC(=O)[C@H](Cc1c[nH]cn1)NC(=O)C(C)(C)NC(=O)[C@@H](N)Cc1c[nH]cn1)[C@@H](C)O)C(C)C)C(C)C)C(=O)N[C@@H](C)C(=O)N[C@@H](CC(N)=O)C(=O)N[C@H](C(N)=O)[C@@H](C)O
B6: Peptide 1 (peptide)
peptide: HSQGS[αMeF]TSDVSK[Aib]LDSK([AEEA-AEEA-γGlu-C18 diacid])AAQD[αMeF]VQ[Aib]IAN-NH2
modifications: N-terminus assumed
SMILES: CC[C@H](C)[C@H](NC(=O)C(C)(C)NC(=O)[C@H](CCC(N)=O)NC(=O)[C@@H](NC(=O)[C@](C)(Cc1ccccc1)NC(=O)[C@H](CC(=O)O)NC(=O)[C@H](CCC(N)=O)NC(=O)[C@H](C)NC(=O)[C@H](C)NC(=O)[C@H](CCCCNC(=O)COCCOCCNC(=O)COCCOCCNC(=O)CC[C@H](NC(=O)CCCCCCCCCCCCCCCCC(=O)O)C(=O)O)NC(=O)[C@H](CO)NC(=O)[C@H](CC(=O)O)NC(=O)[C@H](CC(C)C)NC(=O)C(C)(C)NC(=O)[C@H](CCCCN)NC(=O)[C@H](CO)NC(=O)[C@@H](NC(=O)[C@H](CC(=O)O)NC(=O)[C@H](CO)NC(=O)[C@@H](NC(=O)[C@](C)(Cc1ccccc1)NC(=O)[C@H](CO)NC(=O)CNC(=O)[C@H](CCC(N)=O)NC(=O)[C@H](CO)NC(=O)[C@@H](N)Cc1c[nH]cn1)[C@@H](C)O)C(C)C)C(C)C)C(=O)N[C@@H](C)C(=O)N[C@@H](CC(N)=O)C(N)=O

Molecular target: human GLP-1 receptor (human, UniProt P43220)
Test: cell-based or functional assay

Binder	cAMP production, hGLP-1R EC50 (pM)
H[αMeS]QGS[αMeF]TSDVSKILDSK([PEG2′-PEG2′-γGlu-γGlu-Myristoyl])AAQD[αMeF]VQ[Aib]IINT-NH2 [Peptide 132]	0.949
B1	20.5
H[αMeS]QGS[αMeF]TSDVSKILDSK([PEG2′-PEG2′-γGlu-Stearoyl])AAQD[αMeF]VQ[Aib]IINT-NH2 [Peptide 133]	1.06
H[Aib]QGS[αMeF]TSDVSKILDSK([(PEG)2-(PEG)2-γGlu-Palmitoyl])AAQD[αMeF]VQ[Aib]IINT-NH2 [Peptide 128]	0.788
B2	33.1
H[Aib]QGS[αMeF]TSDVSKILDSK([(PEG)2-(PEG)2-γGlu-Myristoyl])AAQD[αMeF]VQ[Aib]IINT-NH2 [Peptide 129]	0.462
B3	45
H[αMeS]QGS[αMeF]TSDVSKILDSK([PEG2′-PEG2′-γGlu-γGlu-Palmitoyl])AAQD[αMeF]VQ[Aib]IINT-NH2 [Peptide 131]	0.511
B4	33
B5	93.8
B6	3200

Molecular target: human glucagon receptor (human, UniProt P47871)
Test: cell-based or functional assay

Binder	cAMP production, hGluc-R EC50 (pM)
H[αMeS]QGS[αMeF]TSDVSKILDSK([PEG2′-PEG2′-γGlu-γGlu-Myristoyl])AAQD[αMeF]VQ[Aib]IINT-NH2 [Peptide 132]	34.3
B1	122
H[αMeS]QGS[αMeF]TSDVSKILDSK([PEG2′-PEG2′-γGlu-Stearoyl])AAQD[αMeF]VQ[Aib]IINT-NH2 [Peptide 133]	30
H[Aib]QGS[αMeF]TSDVSKILDSK([(PEG)2-(PEG)2-γGlu-Palmitoyl])AAQD[αMeF]VQ[Aib]IINT-NH2 [Peptide 128]	4.7
B2	61.4
H[Aib]QGS[αMeF]TSDVSKILDSK([(PEG)2-(PEG)2-γGlu-Myristoyl])AAQD[αMeF]VQ[Aib]IINT-NH2 [Peptide 129]	4.1
B3	135
H[αMeS]QGS[αMeF]TSDVSKILDSK([PEG2′-PEG2′-γGlu-γGlu-Palmitoyl])AAQD[αMeF]VQ[Aib]IINT-NH2 [Peptide 131]	17.8
B4	105
B5	462
B6	> 27100
